The text below walks through data of patent US7125979.

Non-standard residues stand in square brackets, D forms with d. No end group written: not given here.

Assay in all cases: cell-based or functional assay
One assay has as its target NPY Y2 receptor (mouse) (UniProt P97295).
The target of the next assay is MC3-R (mouse) (UniProt P33033).
Assay [1] has as its target µ-opioid receptor (mouse) (UniProt P42866).

Sequence of MC3-R (mouse) (P33033 whole entry): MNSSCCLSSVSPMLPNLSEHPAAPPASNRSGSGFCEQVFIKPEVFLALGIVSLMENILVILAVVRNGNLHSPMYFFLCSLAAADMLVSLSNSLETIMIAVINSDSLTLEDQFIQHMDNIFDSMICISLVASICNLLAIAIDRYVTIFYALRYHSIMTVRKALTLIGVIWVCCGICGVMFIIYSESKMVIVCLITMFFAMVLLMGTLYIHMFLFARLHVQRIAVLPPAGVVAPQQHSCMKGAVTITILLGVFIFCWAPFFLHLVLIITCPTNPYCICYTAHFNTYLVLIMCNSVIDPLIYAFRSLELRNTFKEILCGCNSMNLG
Sequence of µ-opioid receptor (mouse) (P42866 whole entry): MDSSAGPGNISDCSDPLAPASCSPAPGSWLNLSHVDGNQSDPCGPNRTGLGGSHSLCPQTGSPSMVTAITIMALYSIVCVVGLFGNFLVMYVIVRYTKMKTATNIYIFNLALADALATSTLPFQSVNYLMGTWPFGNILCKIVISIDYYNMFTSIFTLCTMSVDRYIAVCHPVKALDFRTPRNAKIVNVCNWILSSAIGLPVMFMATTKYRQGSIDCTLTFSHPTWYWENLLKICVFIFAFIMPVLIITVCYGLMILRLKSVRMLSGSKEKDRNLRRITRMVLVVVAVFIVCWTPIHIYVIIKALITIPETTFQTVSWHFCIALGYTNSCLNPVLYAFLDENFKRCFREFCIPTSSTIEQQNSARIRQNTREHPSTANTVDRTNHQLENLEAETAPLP
Sequence of NPY Y2 receptor (mouse) (P97295 whole entry): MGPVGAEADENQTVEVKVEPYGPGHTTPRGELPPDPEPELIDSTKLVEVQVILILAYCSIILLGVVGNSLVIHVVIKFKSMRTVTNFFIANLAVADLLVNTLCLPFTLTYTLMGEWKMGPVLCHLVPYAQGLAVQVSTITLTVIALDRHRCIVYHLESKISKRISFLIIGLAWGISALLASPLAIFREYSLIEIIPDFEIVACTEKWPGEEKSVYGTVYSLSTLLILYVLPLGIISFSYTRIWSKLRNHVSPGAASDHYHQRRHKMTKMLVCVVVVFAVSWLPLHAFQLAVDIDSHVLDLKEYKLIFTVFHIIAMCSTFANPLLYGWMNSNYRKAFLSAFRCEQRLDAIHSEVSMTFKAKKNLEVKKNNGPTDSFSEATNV

“neuropeptide Y (from UniProt P01303 29-64)” had a decrease of the frequency of GABAergic IPSCs in POMC cells (100 nM NPY) with NPY Y2 receptor (mouse) of 55%. Consider “N-acetyl (Leu^28, Leu^31) NPY (24-36) (from UniProt P01303 52-64) (peptide)”, for which the reduction of the frequency of inhibitory postsynaptic currents (IPSCs) onto POMC neurons with NPY Y2 receptor (mouse) was 44.4%. In the case of YVMGHFR[dW]DRFG (peptide, UniProt P01189 77-88, looked up, ends and bridges not checked) [D-Trp^8-γMSH], in the assay with MC3-R (mouse), the frequency of GABAergic IPSCs recorded from POMC neurons (7 nM) came to 280% and the hyperpolarization of POMC neurons (7 nM) is -5.5 mV. The molecule YGGFM (peptide, UniProt P01210 100-104, looked up) [met-enkephalin] came in with a hyperpolarization of the membrane potential of POMC cells (whole cell recording, 30 µM Met-Enk) in assay [1] of 10 to 20 mV.
